Values quoted from earlier work, collected in US20020188108.

Target: T1, IF3-His6 (translation initiation factor 3) (Escherichia coli) (UniProt P0A707)
T1 sequence: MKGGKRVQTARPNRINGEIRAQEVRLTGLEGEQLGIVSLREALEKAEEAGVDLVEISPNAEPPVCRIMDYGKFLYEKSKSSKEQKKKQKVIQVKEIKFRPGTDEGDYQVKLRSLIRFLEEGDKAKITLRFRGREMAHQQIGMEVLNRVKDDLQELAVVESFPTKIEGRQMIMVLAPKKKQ
Conditions: CITED Tapprich et al. 1989

Substance: 16S rRNA G791A in 30S subunit
- binding signal (fold reduction): 10
